Reference: the supplement of paper PMC10567573

B1: MYL5 (parent)
chain: DVAGNLDYKALSYVITHGEEKEE

Variants of: B1
Assay: protein stability index of a GFP-peptide fusion (GPS, HEK-293T) (PSI 1-6); higher = more stable
Conditions: c terminus: native
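Also: lentivirally expressed fusions sorted by FACS into six bins by GFP to DsRed ratio, PSI derived from sequencing read proportions per bin multiplied by bin number.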

In order of rising protein stability index:
1. G18P  1.12
2. T16M  1.18
3. A10Y  1.22
4. V14M  1.24
5. E20S  1.26
6. T16L  1.27
7. A3C  1.29
8. V2E  1.35
9. L6V  1.36
10. K21F  1.37
11. Y8T  1.42
12. D7I  1.44
13. G4I  1.46
14. G18S  1.49
15. G4N  1.51
16. K21S  1.52
17. K9H  1.53
18. A3N  1.54
19. Y8N  1.56
20. G4M  1.59
21. K21H  1.6
22. V2A  1.64
23. D1M  1.65
24. N5R  1.67
25. H17C  1.67
26. G18C  1.68
27. G18H  1.7
28. K21P  1.72
29. S12A  1.72
30. S12V  1.73
31. L6C  1.74
32. Y8R  1.75
33. V2N  1.75
34. G4F  1.77
35. E20M  1.77
36. G18T  1.78
37. K21Y  1.79
38. G4Q  1.8
39. Y8D  1.81
40. E20I  1.81
41. I15M  1.82
42. D7P  1.83
43. N5W  1.83
44. H17P  1.83
45. A3D  1.87
46. N5F  1.87
47. L11V  1.88
48. T16S  1.89
49. D7A  1.89
50. I15L  1.89
51. A10T  1.9
52. D7N  1.91
53. E20D  1.91
54. G4V  1.92
55. V2H  1.92
56. L6G  1.93
57. L6Q  1.93
58. K21W  1.95
59. K9P  1.95
60. D7V  1.96
61. A3V  1.97
62. N5K  1.97
63. Y8Q  1.98
64. K21M  1.98
65. T16E  1.99
66. S12R  1.99
67. V2T  2
68. A10H  2
69. A10Q  2
70. T16D  2.01
71. Y8E  2.01
72. L6P  2.01
73. E20K  2.05
74. L6K  2.06
75. L6D  2.06
76. D1A  2.07
77. V14C  2.07
78. G18M  2.07
79. L11K  2.08
80. L11Y  2.08
81. A10S  2.08
82. Y8A  2.1
83. D1Q  2.1
84. G18E  2.1
85. I15A  2.1
86. A10G  2.1
87. D1F  2.11
88. G18N  2.11
89. Y13H  2.12
90. V14T  2.14
91. Y13I  2.14
92. I15Q  2.17
93. K9T  2.18
94. E19I  2.19
95. E20N  2.19
96. I15K  2.19
97. A3T  2.21
98. L11N  2.23
99. A10I  2.24
100. H17E  2.25
101. V14F  2.25
102. L6H  2.28
103. D7E  2.29
104. V2R  2.3
105. V14S  2.31
106. E20T  2.31
107. I15D  2.31
108. Y13Q  2.33
109. T16V  2.35
110. G4T  2.42
111. E23L  2.42
112. G18I  2.42
113. G4C  2.45
114. L11P  2.45
115. D1S  2.46
116. T16W  2.48
117. V14P  2.48
118. D7S  2.5
119. V14K  2.5
120. E23V  2.5
121. L6E  2.52
122. K21C  2.53
123. E20H  2.53
124. N5I  2.54
125. S12G  2.54
126. E20Q  2.59
127. N5Q  2.61
128. E20Y  2.61
129. G18D  2.61
130. G4E  2.63
131. I15N  2.63
132. L11E  2.64
133. T16K  2.65
134. N5D  2.69
135. I15R  2.73
136. D1R  2.74
137. L11H  2.75
138. S12N  2.77
139. E20F  2.78
140. L6T  2.82
141. L6F  2.82
142. D7H  2.83
143. E19L  2.9
144. I15C  2.95
145. Y13S  2.97
146. S12T  3.01
147. I15Y  3.01
148. I15E  3.02
149. E23K  3.3
150. D1H  3.37
151. Y13P  3.39
152. K21G  3.52
153. V14N  3.53
154. K21E  3.8
155. E23S  3.81
156. E22V  4.09
157. E23A  4.11
158. E22A  4.23
159. E23C  4.24
160. E22L  4.25
161. E22M  4.25
162. E22C  4.34
163. E22S  4.46
164. V2Y  4.5
165. E23T  4.54
166. E22H  4.65
167. E23D  4.94
